Reference: patent CN110790839A (JIANGSU HENGRUI MEDICINE CO; SHANGHAI HENGRUI …, dated 2020)

B1: Ab05 (antibody, human IgG4 S228P, kappa, F234A L235A, V domains shown)
VH: EVQLVESGGGLVQPGGSLRLSCAASGFTFSSYMMSWVRQAPGKGLEWVATISGGGANTYFADSVKGRFTISRDNAKNSLYLQMNSLRAEDTAVYYCARTQIGFTNWGQGTTVTVSS
VL: DIQMTQSPSSLSASVGDRVTITCLASQTIGTWLTWYQQKPGKAPKLLIYTATSLADGVPSRFSGSGSGTDFTLTISSLQPEDFATYYCQQAYSIPWTFGGGTKVEIKR
notes: also called 抗PD-1抗体Ab05
B2: Ab01 (antibody, human IgG4 S228P, kappa, F234A L235A, V domains shown)
VH: EVQLVESGGGLVQPGGSLRLSCAASGFTFSSYMMSWVRQAPGKGLEWVATISGGGANTYFADSVKGRFTISRDNAKNSLYLQMNSLRAEDTAVYYCARTQIGFTNWGQGTTVTVSS
VL: DIQMTQSPSSLSASVGDIVTITCLASQTIGTWLTWYQQKPGKAPKLLIYTATSLADGVPSRFSGSGSGTDFTLTISSLQPEDFATYYCQQVYSIPWTFGGGTKVEIKR
notes: also called 抗PD-1抗体Ab01
B3: H005-1 (antibody, human IgG4 S228P, kappa, F234A L235A, V domains shown)
VH: EVQLVESGGGLVQPGGSLRLSCAASGFTFSSYMMSWVRQAPGKGLEWVATISGGGANTYYPDSVKGRFTISRDNAKNSLYLQMNSLRAEDTAVYYCARQLYYFDYWGQGTTVTVSS
VL: DIQMTQSPSSLSASVGDRVTITCLASQTIGTWLTWYQQKPGKAPKLLIYTATSLADGVPSRFSGSGSGTDFTLTISSLQPEDFATYYCQQVYSIPWTFGGGTKVEIKR
notes: Parent antibody from WO2015085847; also called 亲本抗体H005-1; H005-1抗体

Biological target: T1, 人PD-1抗原(Cat.#10377H08H，Sino Biological) (human, UniProt Q15116 25-167)
T1 construct: Bought reagent, used as the analyte in Biacore; also called human PD-1; PD-1-His
T1 sequence (Q15116 25-167 limits assumed): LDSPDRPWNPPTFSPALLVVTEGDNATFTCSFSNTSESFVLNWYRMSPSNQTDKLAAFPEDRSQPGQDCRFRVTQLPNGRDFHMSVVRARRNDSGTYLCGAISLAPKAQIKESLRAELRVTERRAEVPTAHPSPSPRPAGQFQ
Experiment: SPR, Biacore T200; IgG captured on Protein A chip, human PD-1 as analyte, 1:1 Langmuir fit

**Q.** With B1 as the binder, how does the Kd read?
**A.** The Kd was 2.8 nM.

**Q.** For B2, which Kd is on record?
**A.** The Kd was 2.56 nM.

**Q.** How did the Kd turn out when B3 was run?
**A.** Its Kd is 14.6 nM.
